Broadly, the Kd is the free concentration of one partner at which half of the binding sites on the other are occupied at equilibrium, for simple one-to-one binding. A lower Kd goes with a tighter complex.

For one molecule, Kd and dH results are on record in article PMC11772548, “A Complex Interplay Between Melatonin and RORβ: RORβ is Unlikely a Putative Receptor for Melatonin as Revealed by Biophysical Assays” (Molecular Neurobiology, 2024).

The experiment has as its target ligand-binding domain (LBD) of human RORβ (human, UniProt Q92753-2 250-450, Paper numbering follows the 459-aa isoform (RORβ1; Thr210, Cys262, LBD ending at the AF-2 end, 450), so +11 gives the 470-aa entry: printed 250-450 = 261-461. The paper's modelled LBD is 210-450 (= 22). The experiment can be described thus: ITC; 2 mM SRC-1 peptide titrated into 50-100 µM LBD of RORβ; 20 mM Tris-HCl pH 8.6, 2 mM CHAPS, 100 mM NaCl, 5 mM DTT; Malvern MicroCal PEAQ-ITC. The note with it: both partners purified.

ligand-binding domain (LBD) of human RORβ, sequence (Q92753 250-450): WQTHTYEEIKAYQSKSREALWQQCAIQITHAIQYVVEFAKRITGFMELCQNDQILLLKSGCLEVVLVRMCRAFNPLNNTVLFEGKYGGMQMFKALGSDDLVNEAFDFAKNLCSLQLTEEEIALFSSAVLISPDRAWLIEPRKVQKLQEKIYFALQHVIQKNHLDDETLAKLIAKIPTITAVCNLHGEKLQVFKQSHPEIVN

B1: SRC-1 co-activator peptide (peptide)
peptide: RHKILHRLLQEGSPS
notes: also called SRC-1 peptide; source: synthetic peptide (GenScript)
In turn, B1 gave a Kd of 19.8 µM and a dH of -1.1 kcal/mol.
